For orientation: IC50 means the concentration needed to halve the response being measured.

Here are results for three molecules from patent publication US20190270786A1 (PROTAGONIST THERAPEUTICS, published 2019).

The target of assay [1] is T1, human IL-23 (human, UniProt Q9NPF7 20-189; P29460 23-328).
T1 sequence (looked up) 1: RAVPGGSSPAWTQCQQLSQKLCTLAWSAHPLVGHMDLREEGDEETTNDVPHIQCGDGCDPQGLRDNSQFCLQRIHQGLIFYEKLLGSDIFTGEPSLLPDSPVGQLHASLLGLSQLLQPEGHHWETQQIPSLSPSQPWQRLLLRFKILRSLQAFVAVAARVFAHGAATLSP
T1 sequence (looked up) 2: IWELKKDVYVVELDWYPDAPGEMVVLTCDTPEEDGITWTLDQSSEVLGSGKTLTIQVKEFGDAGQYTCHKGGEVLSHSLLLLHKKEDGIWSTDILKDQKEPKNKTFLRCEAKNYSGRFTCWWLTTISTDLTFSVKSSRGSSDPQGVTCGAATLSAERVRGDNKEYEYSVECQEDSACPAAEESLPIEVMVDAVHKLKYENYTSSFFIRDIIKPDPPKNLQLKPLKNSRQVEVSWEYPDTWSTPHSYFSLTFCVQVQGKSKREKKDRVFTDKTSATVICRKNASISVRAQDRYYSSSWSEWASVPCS
The experiment in a line: cell-based or functional assay.

Assay [2] concerns the target T1, human IL-23. Nature of the assay: Human IL23/IL23R huFc competition ELISA. As to the method:
(§1) Immulon® 4HBX plate was coated with 200 ng/well of IL23R_huFC and incubated overnight at 4° C. The wells were washed three times with PBST, blocked with PBS containing 5% PhosphoBLOCKER (Cell Biolabs #AKR-103) for 1 hour at room temperature, and washed again three times with PBST. […] The wells were again washed four times with PBST. The secondary antibodies, HRP conjugated donkey anti-goat IgG (Jackson ImmunoResearch Laboratories #705-035-147) diluted 1:5000 in PBS, was then added and incubated for 30 minutes at room temperature. The plate was finally washed as above. Signals were visualized with TMB One Component HRP Membrane Substrate, quenched with 2 M sulfuric acid and read spectrophotometrically at 450 nm.
In general terms: An ELISA detects its analyte on a solid surface through an enzyme-linked reagent.

The next assay deals with T2, mouse IL-23 (mouse, UniProt Q9EQ14 22-196; P43432 23-335).
T2 sequence (looked up) 1: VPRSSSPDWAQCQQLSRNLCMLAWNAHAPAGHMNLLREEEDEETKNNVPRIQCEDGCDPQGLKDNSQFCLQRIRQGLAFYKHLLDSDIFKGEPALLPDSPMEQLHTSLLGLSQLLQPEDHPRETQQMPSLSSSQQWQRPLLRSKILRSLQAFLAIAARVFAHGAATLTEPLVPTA
T2 sequence (looked up) 2: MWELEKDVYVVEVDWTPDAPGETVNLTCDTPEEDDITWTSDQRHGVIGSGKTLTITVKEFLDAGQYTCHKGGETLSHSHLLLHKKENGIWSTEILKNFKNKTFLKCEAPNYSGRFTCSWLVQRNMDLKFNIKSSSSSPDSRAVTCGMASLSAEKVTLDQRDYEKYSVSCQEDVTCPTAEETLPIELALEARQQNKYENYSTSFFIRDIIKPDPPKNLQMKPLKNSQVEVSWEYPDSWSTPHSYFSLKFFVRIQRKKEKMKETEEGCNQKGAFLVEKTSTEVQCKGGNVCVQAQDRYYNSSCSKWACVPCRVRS
The experiment in a line: Mouse IL23/IL23R huFc competition ELISA.

A further assay has as its target T3, human IL-12 (human, UniProt P29459 23-219; P29460 23-328).
T3 sequence (looked up) 1: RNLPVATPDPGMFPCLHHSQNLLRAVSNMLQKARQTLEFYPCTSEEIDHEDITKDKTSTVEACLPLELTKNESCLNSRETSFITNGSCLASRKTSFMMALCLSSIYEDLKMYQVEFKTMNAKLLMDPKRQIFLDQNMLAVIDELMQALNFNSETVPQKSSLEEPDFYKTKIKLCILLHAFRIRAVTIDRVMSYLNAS
T3 sequence (looked up) 2: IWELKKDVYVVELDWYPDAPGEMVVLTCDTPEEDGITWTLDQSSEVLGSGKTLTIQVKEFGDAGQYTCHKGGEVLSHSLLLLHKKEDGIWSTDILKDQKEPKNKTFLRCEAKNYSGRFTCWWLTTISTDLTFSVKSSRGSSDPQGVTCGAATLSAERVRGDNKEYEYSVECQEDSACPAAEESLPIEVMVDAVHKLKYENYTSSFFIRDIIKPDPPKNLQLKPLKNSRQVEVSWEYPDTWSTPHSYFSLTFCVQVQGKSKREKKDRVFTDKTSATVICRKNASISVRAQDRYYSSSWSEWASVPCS
The experiment in a line: Human IL12/IL12Rβ1 huFc competition ELISA (IL-12Rβ1_huFC coated, IL-12 at its EC50). On the procedure: (§2) Human IL-12Rβ1 ELISA assays were performed as follows: an assay plate was coated with 100 ng/well of human IL-12Rβ1_huFC and incubated overnight at 4° C. The wells were washed, blocked, and washed again. […] Signals were visualized with TMB One Component HRP Membrane Substrate and quenched with 2 M sulfuric acid.

The target of assay [3] is T1, human IL-23. Nature of the assay: Human IL23/IL12Rβ1 huFc competition ELISA (IL-12Rβ1_huFC coated, IL-23 at its EC50). On the procedure:
as §2

The target in assay [4] is T1, human IL-23. The experiment in a line: IL23-IL23R competitive binding ELISA (IL23R_huFC coated, 0.9 nM IL-23, peptide titrated); bin by the legend in paragraph 291. As to the method: as §1

Bridge positions count the residues as written; N and C are the ends.

B1: Peptide 10 (peptide)
peptide: Ac-FNMQCLRRMSEAGVDPNLNQEQRWAKIKSIMDDC-NH2
modifications: disulfide 5-34
SMILES: CC[C@H](C)[C@@H]1NC(=O)[C@H](CCCCN)NC(=O)[C@H](C)NC(=O)[C@H](Cc2c[nH]c3ccccc23)NC(=O)[C@H](CCCNC(=N)N)NC(=O)[C@H](CCC(N)=O)NC(=O)[C@H](CCC(=O)O)NC(=O)[C@H](CCC(N)=O)NC(=O)[C@H](CC(N)=O)NC(=O)[C@H](CC(C)C)NC(=O)[C@H](CC(N)=O)NC(=O)[C@@H]2CCCN2C(=O)[C@H](CC(=O)O)NC(=O)[C@H](C(C)C)NC(=O)CNC(=O)[C@H](C)NC(=O)[C@H](CCC(=O)O)NC(=O)[C@H](CO)NC(=O)[C@H](CCSC)NC(=O)[C@H](CCCNC(=N)N)NC(=O)[C@H](CCCNC(=N)N)NC(=O)[C@H](CC(C)C)NC(=O)[C@@H](NC(=O)[C@H](CCC(N)=O)NC(=O)[C@H](CCSC)NC(=O)[C@H](CC(N)=O)NC(=O)[C@H](Cc2ccccc2)NC(C)=O)CSSC[C@@H](C(N)=O)NC(=O)[C@H](CC(=O)O)NC(=O)[C@H](CC(=O)O)NC(=O)[C@H](CCSC)NC(=O)[C@H]([C@@H](C)CC)NC(=O)[C@H](CO)NC(=O)[C@H](CCCCN)NC1=O
notes: Synthetic peptide
On to B1, for which, in the assay with human IL-23 [1], the “Mouse splenocyte assay: IC50 of IL-23-dependent IL-17A release” value was found to be 1.6 µM. For the same molecule, the half-maximal inhibitory concentration (IC50) with human IL-23 [2] is 3.3 µM; with mouse IL-23, 3.6 µM; with human IL-12, > 100 µM; with human IL-23 [3], > 100 µM.

B2: Peptide 13 (peptide)
peptide: Ac-FNMQCLRRMAEAGVDPNLNQEQRWAKIKSIMDDC-NH2
modifications: disulfide 5-34
SMILES: CC[C@H](C)[C@@H]1NC(=O)[C@H](CCCCN)NC(=O)[C@H](C)NC(=O)[C@H](Cc2c[nH]c3ccccc23)NC(=O)[C@H](CCCNC(=N)N)NC(=O)[C@H](CCC(N)=O)NC(=O)[C@H](CCC(=O)O)NC(=O)[C@H](CCC(N)=O)NC(=O)[C@H](CC(N)=O)NC(=O)[C@H](CC(C)C)NC(=O)[C@H](CC(N)=O)NC(=O)[C@@H]2CCCN2C(=O)[C@H](CC(=O)O)NC(=O)[C@H](C(C)C)NC(=O)CNC(=O)[C@H](C)NC(=O)[C@H](CCC(=O)O)NC(=O)[C@H](C)NC(=O)[C@H](CCSC)NC(=O)[C@H](CCCNC(=N)N)NC(=O)[C@H](CCCNC(=N)N)NC(=O)[C@H](CC(C)C)NC(=O)[C@@H](NC(=O)[C@H](CCC(N)=O)NC(=O)[C@H](CCSC)NC(=O)[C@H](CC(N)=O)NC(=O)[C@H](Cc2ccccc2)NC(C)=O)CSSC[C@@H](C(N)=O)NC(=O)[C@H](CC(=O)O)NC(=O)[C@H](CC(=O)O)NC(=O)[C@H](CCSC)NC(=O)[C@H]([C@@H](C)CC)NC(=O)[C@H](CO)NC(=O)[C@H](CCCCN)NC1=O
notes: Synthetic peptide
As to B2, in the assay with human IL-23 [4], the 50% inhibitory concentration (IC50) was ≤ 1 µM.

B3: Ustekinumab (antibody, V domains shown)
VH: EVQLVQSGAEVKKPGESLKISCKGSGYSFTTYWLGWVRQMPGKGLDWIGIMSPVDSDIRYSPSFQGQVTMSVDKSITTAYLQWNSLKASDTAMYYCARRRPGQGYFDFWGQGTLVTVSS
VL: DIQMTQSPSSLSASVGDRVTITCRASQGISSWLAWYQQKPEKAPKSLIYAASSLQSGVPSRFSGSGSGTDFTLTISSLQPEDFATYYCQQYNIYPYTFGQGTKLEIK
The molecule B3 gave a half-maximal inhibitory concentration (IC50) with human IL-23 [3] of 0.14 µg/mL.
